In article PMC11623648:

Biological target: Integrin αIIbβ3 (human (endogenous in platelets)) (UniProt P05106)
Experiment: cryo-EM structure

stoichiometry N: 2
Substance: Integrin αIIbβ3 (from UniProt P05106 27-788) (complex)
